Data on 17 molecules can be found in patent publication US20250171562A1 (ALK ABELL, published 2025).

Bounds are passed on as bounds.

B1: sdAb F5 (VHH)
VHH: DVQLQESGGGLVQPGGSLRLSCAASGSIFSIDIMGWYRQAPGKQRELVATMPEGNYINYADSVKGRLTLSRDKGKNTVYLQLNSLKPEDTAVYYCYGFGVREGRGNVYWGQGTQVTVS
B2: A1B2(G4S)4 (bispecific antibody)
chain: EVQLLESGGGLVQPGGSLRLSCAASGFTFGNYDMAWVRQAPGKRPEWVSSIDTGGDITHYADSVKGRFTISRDNAKNTLYLQMNSLRPEDTAVYWCATDEEYALGPNEFDYYGQGTLVTVSGGGGSGGGGSGGGGSGGGGSQVQLVESGGGLVQAGGSLRLSCAVFGSTFSNNVADWYRQAPGKQRELVARISASGATREYGDSVKGRFTISRDDAKNTMYLQMNNLKPEDTAVYRCHKIEWEDLSRKDYWGQGTQVTVS
B3: A1B3(G4S)4 (bispecific antibody)
chain: EVQLLESGGGLVQPGGSLRLSCAASGFTFGNYDMAWVRQAPGKRPEWVSSIDTGGDITHYADSVKGRFTISRDNAKNTLYLQMNSLRPEDTAVYWCATDEEYALGPNEFDYYGQGTLVTVSGGGGSGGGGSGGGGSGGGGSDVQLQESGGGLVQAGGSLRLSCAASGFIFRLAGMSWVRQAPGKGFEWVSGITMDGSTTNYADSVKGRFTISRDNSKNRLYLQMNSLKPEDTAVYYCARGAKGGYNDPRGQGTQVTVS
B4: sdAb B2 (VHH)
VHH: QVQLVESGGGLVQAGGSLRLSCAVFGSTFSNNVADWYRQAPGKQRELVARISASGATREYGDSVKGRFTISRDDAKNTMYLQMNNLKPEDTAVYRCHKIEWEDLSRKDYWGQGTQVTVS
B5: A1D2(G4S)4 (bispecific antibody)
chain: EVQLLESGGGLVQPGGSLRLSCAASGFTFGNYDMAWVRQAPGKRPEWVSSIDTGGDITHYADSVKGRFTISRDNAKNTLYLQMNSLRPEDTAVYWCATDEEYALGPNEFDYYGQGTLVTVSGGGGSGGGGSGGGGSGGGGSDVQLQESGGGLVEAGGSLRLSCVASGRTFSGWSMGWFRQAPGKEREFVAAISWVGSWIGGTVYSNSVKGRFTISRDNARTTVYLQMNSLKPEDTAVYFCAAANSETPRIFASEYDYWGQGTQVTVS
B6: sdAb F1 (VHH)
VHH: DVQLQESGGGLVQAGGSLKLSCAASGGSLSRYDMGWFRQAPGKEREFVARISWSGTTKYYADAVKGRFAISRDNAKNTVYLQMNSLKPEDTAVYYCAAAFYGNRGYYDVNAYTSSGQGTQVTVS
B7: sdAb F4 (VHH)
VHH: DVQLQESGGGLVQAGGSLRLSCAVSGLSFSSMGWFRQPPGKEREFVAAISLYSGSTYYADSVKGRFTISSDNAKSTVYLQMNSLKPEDAAVYFCAADRQRTWSTFYASRQATYNYWGQGTQVTVTS
B8: A1A1(G4S)4 (VHH)
chain: EVQLLESGGGLVQPGGSLRLSCAASGFTFGNYDMAWVRQAPGKRPEWVSSIDTGGDITHYADSVKGRFTISRDNAKNTLYLQMNSLRPEDTAVYWCATDEEYALGPNEFDYYGQGTLVTVSGGGGSGGGGSGGGGSGGGGSEVQLLESGGGLVQPGGSLRLSCAASGFTFGNYDMAWVRQAPGKRPEWVSSIDTGGDITHYADSVKGRFTISRDNAKNTLYLQMNSLRPEDTAVYWCATDEEYALGPNEFDYYGQGTLVTVS
notes: monospecific, bivalent control of two A1 linked by (G4S)4
B9: sdAb B1 (VHH)
VHH: QVQLQESGGGLVQTGGSLRLSCAVHGRTFSNTGMGWFRQAPGNERQFVAIISPSGTSTYYADSVKGRFTISRDPAKNTVYLQMNSLKMDDTAVYYCAASYGSNWSTLRHQRRNEYDAWGQGTQVAVS
B10: sdAb E2 (VHH)
VHH: DVQLQESGGGLVQAGGSLRLSCAASGRTISRYAVGWFRRPPAKEREFIGINWSGGSTTYADSAEGRFIISRDNAKNTVYLQMNSLKPEDTAVYYCAVPSVLVQGGISNPSQYDYWGQGTQVTVS
B11: sdAb E1 (VHH)
VHH: DVQLQESGGGLVQAGGSLRLSCLASGRTFTTTSGYNMGWFRQAPGKEREFVAGIKWVSGSNRAYAESVKGRFTISRDNAKNTVYLQMNSLKPEDTAVYYCAAATGQSYVPIREYEYVYWGQGTQVTVS
B12: F1A1(G4S)4 (bispecific antibody)
chain: DVQLQESGGGLVQAGGSLKLSCAASGGSLSRYDMGWFRQAPGKEREFVARISWSGTTKYYADAVKGRFAISRDNAKNTVYLQMNSLKPEDTAVYYCAAAFYGNRGYYDVNAYTSSGQGTQVTVSGGGGSGGGGSGGGGSGGGGSEVQLLESGGGLVQPGGSLRLSCAASGFTFGNYDMAWVRQAPGKRPEWVSSIDTGGDITHYADSVKGRFTISRDNAKNTLYLQMNSLRPEDTAVYWCATDEEYALGPNEFDYYGQGTLVTVS
B13: B2A1(G4S)4 (bispecific antibody)
chain: QVQLVESGGGLVQAGGSLRLSCAVFGSTFSNNVADWYRQAPGKQRELVARISASGATREYGDSVKGRFTISRDDAKNTMYLQMNNLKPEDTAVYRCHKIEWEDLSRKDYWGQGTQVTVSGGGGSGGGGSGGGGSGGGGSEVQLLESGGGLVQPGGSLRLSCAASGFTFGNYDMAWVRQAPGKRPEWVSSIDTGGDITHYADSVKGRFTISRDNAKNTLYLQMNSLRPEDTAVYWCATDEEYALGPNEFDYYGQGTLVTVS
B14: sdAb F3 (VHH)
VHH: DVQLQESGGGLVQAGGSLKLSCAASRGSLSRWDVAWFRQAPGKERSFVTRISWSGTTSYYADAVKGRFAISRDNAKNTVYLQMNSLKPEDTAVYYCAVALYGNRGYYDVNAHSYWGQGTQVTVS
B15: B3A1(G4S)4 (bispecific antibody)
chain: DVQLQESGGGLVQAGGSLRLSCAASGFIFRLAGMSWVRQAPGKGFEWVSGITMDGSTTNYADSVKGRFTISRDNSKNRLYLQMNSLKPEDTAVYYCARGAKGGYNDPRGQGTQVTVSGGGGSGGGGSGGGGSGGGGSEVQLLESGGGLVQPGGSLRLSCAASGFTFGNYDMAWVRQAPGKRPEWVSSIDTGGDITHYADSVKGRFTISRDNAKNTLYLQMNSLRPEDTAVYWCATDEEYALGPNEFDYYGQGTLVTVS
B16: sdAb E3 (VHH)
VHH: DVQLQESGGGLVQAGGSLRLACAASGRTLSSYVVSWFRQAPGKERKFVAAITWSGLSTTYLDSVQGRFTISRDNTKDTVYLQMNSLKPQDTAIYYCAAGPNIPSILRTRESEYAYWGQGTQVTVS
B17: D2A1(G4S)4 (bispecific antibody)
chain: DVQLQESGGGLVEAGGSLRLSCVASGRTFSGWSMGWFRQAPGKEREFVAAISWVGSWIGGTVYSNSVKGRFTISRDNARTTVYLQMNSLKPEDTAVYFCAAANSETPRIFASEYDYWGQGTQVTVSGGGGSGGGGSGGGGSGGGGSEVQLLESGGGLVQPGGSLRLSCAASGFTFGNYDMAWVRQAPGKRPEWVSSIDTGGDITHYADSVKGRFTISRDNAKNTLYLQMNSLRPEDTAVYWCATDEEYALGPNEFDYYGQGTLVTVS

T3 sequence (P01854 other isoform, or with tags, fused parts or gaps): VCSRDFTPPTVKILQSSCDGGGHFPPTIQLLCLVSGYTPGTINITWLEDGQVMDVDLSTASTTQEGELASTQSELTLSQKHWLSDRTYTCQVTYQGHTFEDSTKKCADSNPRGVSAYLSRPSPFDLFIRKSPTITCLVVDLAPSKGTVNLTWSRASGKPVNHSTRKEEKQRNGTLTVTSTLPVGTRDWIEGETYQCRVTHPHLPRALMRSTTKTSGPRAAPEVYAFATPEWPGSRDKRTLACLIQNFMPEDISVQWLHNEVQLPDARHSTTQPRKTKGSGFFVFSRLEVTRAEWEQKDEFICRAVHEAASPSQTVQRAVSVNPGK

For the first assay, the target named is T1, recombinant human IgE (human, UniProt P01854-1 1-428).
T1 construct: made in-house (ALK); preloaded on immobilised FcεRIα in the displacement ELISA
T1 sequence (P01854 other isoform, or with tags, fused parts or gaps): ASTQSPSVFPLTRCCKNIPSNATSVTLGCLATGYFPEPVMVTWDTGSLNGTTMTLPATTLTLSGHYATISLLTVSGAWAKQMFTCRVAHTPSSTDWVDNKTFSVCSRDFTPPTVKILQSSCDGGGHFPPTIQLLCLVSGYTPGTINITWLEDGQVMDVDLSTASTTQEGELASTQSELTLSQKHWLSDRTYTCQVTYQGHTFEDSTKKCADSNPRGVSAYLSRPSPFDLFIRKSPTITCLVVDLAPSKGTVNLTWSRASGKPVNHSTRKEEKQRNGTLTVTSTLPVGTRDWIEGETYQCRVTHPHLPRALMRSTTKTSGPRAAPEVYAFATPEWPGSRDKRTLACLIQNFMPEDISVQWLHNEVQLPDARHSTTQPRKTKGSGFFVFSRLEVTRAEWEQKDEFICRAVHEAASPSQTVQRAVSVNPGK
Put plainly: IgE-FcεRIα displacement ELISA. The method in brief: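 Streptavidin-coated plates carried site-specifically biotinylated recombinant human FcεRIα, loaded with recombinant human IgE at 13 ng/ml. sdAbs in a pM–μM series were added for 1 h, and displaced IgE was washed off. Percent displacement was the signal reduction versus the no-sdAb control, giving EC50 and maximal effect.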
As to B1, the Max effect is 35%.
What is called EC50 is the midpoint of the concentration-response curve. Regarding B2, the EC50 worked out at 1.4 nM and the Max effect was over 95%.
The corresponding values for B3 are 190 nM and 80%.
As for B4, the Max effect is under 20%.
For B5, the EC50 was 10 nM and the Max effect is over 95%.
For B6, the Max effect was found to be 0%.
The same measure, in the same setting: for B7 the value was under 20%.
Consider B8, for which the concentration for a half-maximal effect (EC50) turned out to be 250 nM and the Max effect came to 90%.
The corresponding values for B9 are 200 nM and 65%.
In the case of B10, the Max effect was determined as 0%.
Still for that read-out and setting: for B11 the value was under 20%.
In the case of B12, the EC50 stood at 4000 nM and the Max effect was over 95%.
With B13, the EC50 is 30 nM and the Max effect is over 95%.
On to B14, for which the Max effect is 0%.
As for B15, the EC50 came out at 0.3 nM and the Max effect is over 95%.
Take B16: the Max effect came out at 0%.
B17: the EC50 was found to be 8 nM and the Max effect was over 95%.

In a further assay the target is T2, IgE-Fc Cε3-4 (human, UniProt P01854-1 209-428, limits assumed).
T2 construct: domain: Cε3-Cε4; coated at 2 µg/mL in the ELISA; also called IgE-Fc Cε3-Cε4
T2 sequence (P01854 other isoform, or with tags, fused parts or gaps limits assumed): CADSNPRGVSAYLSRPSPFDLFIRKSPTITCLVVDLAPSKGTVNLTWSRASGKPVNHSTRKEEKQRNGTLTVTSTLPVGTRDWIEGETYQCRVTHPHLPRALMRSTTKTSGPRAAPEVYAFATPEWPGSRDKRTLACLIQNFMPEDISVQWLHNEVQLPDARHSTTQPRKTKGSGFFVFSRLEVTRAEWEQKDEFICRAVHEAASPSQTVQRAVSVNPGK
Put plainly: ELISA, immobilised IgE-Fc Cε3-4. The method, then: SdAb monomers of interest (table 1) and identified in example 2 were amplified from pNT plasmid by PCR and recloned in pET22b plasmid by SLICE cloning reaction. Thereby, a pelB signal sequence and a C-terminal his/HA tag were added to the sdAbs allowing for secretion into periplasmic space and subsequent purification and detection. SdAbs were expressed in E. coli Rosetta (DE3) cells using 2YT media. Expression was induced in early exponential phase with 0.5 mM IPTG and carried overnight at 20° C.-25° C. Purification of sdAbs from supernatant or supernatant+periplasmic extract was performed by IMAC using HisTrap excel column (Cytiva) as first step and by SEC with a Hiload 16-600 Superdex® 75 pg (Cytiva) column as second step. Size and purity of each sdAbs were evaluated on a 15% acrylamide SDS-PAGE. Then, immunoreactivity of sdAbs against immobilized IgE-Fc Cε2-4 and IgE-Fc Cε3-4 was analysed by ELISA. IgE-Fc were coated at 2 μg/mL overnight in a Nunc MaxiSorp plate (ThermoFisher). After blocking sdAbs were added at a 1:10 dilution in TBS and incubated 3h at room temperature. Detection was performed using a mouse anti-HA antibody (ThermoFisher) and an anti-mouse IgG AP conjugated (Sigma Aldrich).
(ELISA stands for enzyme-linked immunosorbent assay.)
Consider B1, for which the binding result is “no binding”.
The same measure, in the same setting: in the case of B4 it was “no binding”; in that of B6, “no binding”.
With B7, the binding result is recorded as “no binding”.
Turning to B9, the binding result was “no binding”.
Still for that read-out and setting: in the case of B10 it was “no binding”.
For B11, the binding result is listed as “no binding”.
For B14, the binding result is recorded as “no binding”.
The same measure, in the same setting: in the case of B16 it was “no binding”.

Another assay concerns the target T3, biotinylated IgE Fc (UniProt P01854-1 104-428, biotinylated).
T3 construct: also called IgE Fc (made in-house ALK, Denmark)
Put plainly: BLI (Octet), IgE Fc on sensor, 1:1 fit. How it is done:
The biotinylated IgE Fc (made in-house ALK, Denmark) was immobilised on SAX (High precision streptavidin) sensors (FortéBIO) to max 1 nm. The association (240 s) and dissociation (600 s) were measured for the analytes in a serial dilution (from 10 nM to 0.37 nM). Data were subtracted to blank reference sensors exposed to the same serial analyte dilutions, aligned, and analysed in the Octet Data Analysis HT 11.1 Software (FortéBIO) using a 1:1 fitting model.
A general note: In BLI a coated tip is dipped into the sample, and binding shifts an interference pattern.
In general, Kd refers to the equilibrium constant for the complex coming apart. Higher therefore signals lower affinity. The koff is the first-order rate constant of dissociation. Usually kon stands for the rate constant with which the complex forms. The low end stands for slower complex formation, the high end for faster complex formation. As to B4, binding was characterised by a dissociation constant (Kd) of 0.11 nM, the koff turned out to be 7.8e-05 s⁻¹ and the kon was 700000 M⁻¹ s⁻¹.
The corresponding values for B9 are 65 nM, 0.049 s⁻¹ and 760000 M⁻¹ s⁻¹.
